This note sets out measurements from patent US20260226189A1 (PHILOGEN S P A, published 2026).

In experiment [1] the target is T1, CEACAM1 transiently expressed on CHO cells (UniProt P13688 35-526, limits assumed).
T1 construct: whole, on cells
T1 sequence (looked up): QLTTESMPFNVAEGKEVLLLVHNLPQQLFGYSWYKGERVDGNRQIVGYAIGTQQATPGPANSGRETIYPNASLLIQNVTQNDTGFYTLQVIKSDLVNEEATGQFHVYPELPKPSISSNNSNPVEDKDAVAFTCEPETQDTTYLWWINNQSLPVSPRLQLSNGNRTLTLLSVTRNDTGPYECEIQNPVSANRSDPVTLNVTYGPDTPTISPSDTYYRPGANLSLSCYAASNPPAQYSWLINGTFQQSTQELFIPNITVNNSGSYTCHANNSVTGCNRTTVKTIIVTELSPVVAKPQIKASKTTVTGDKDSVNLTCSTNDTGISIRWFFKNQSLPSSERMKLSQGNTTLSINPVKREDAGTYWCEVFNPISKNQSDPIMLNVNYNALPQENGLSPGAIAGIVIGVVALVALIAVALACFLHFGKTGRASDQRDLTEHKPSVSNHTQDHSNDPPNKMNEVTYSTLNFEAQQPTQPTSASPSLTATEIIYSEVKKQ
Description: flow cytometry contour plots (SSC against fluorescence) on CHO cells transiently expressing CEACAM1. Background: Flow cytometry measures light scatter and fluorescence of single cells or particles in a stream.

In experiment [2] the target is T2, CEACAM6 transiently expressed on CHO cells (UniProt P40199 35-320, limits assumed).
T2 construct: whole, on cells
T2 sequence (looked up): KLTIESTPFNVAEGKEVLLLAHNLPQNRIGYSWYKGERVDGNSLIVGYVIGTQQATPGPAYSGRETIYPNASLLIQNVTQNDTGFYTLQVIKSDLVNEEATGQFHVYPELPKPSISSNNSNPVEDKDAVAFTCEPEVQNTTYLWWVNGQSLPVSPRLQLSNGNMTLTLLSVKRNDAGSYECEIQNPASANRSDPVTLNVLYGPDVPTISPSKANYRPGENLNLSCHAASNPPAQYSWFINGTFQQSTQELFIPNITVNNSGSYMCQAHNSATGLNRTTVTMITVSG
The experiment in a line: flow cytometry contour plots (SSC against fluorescence) on CHO cells transiently expressing CEACAM6.

B1: PEA2 antibody as used in Example 8 (flow cytometry on transfected CHO cells) (antibody, V domains shown)
VH: EVQLLESGGGLVQPGGSLRLSCAASGFTFSRTAMSWVRQAPGKGLEWVSAIDYDGGVTYYADSVKGRFTISRDNSKNTLYLQMNSLRAEDTAVYYCAKLTYARFDYWGQGTLVTVSS
VL: EIVLTQSPGTLSLSPGERATLSCRASQSVSQNHLAWYQQKPGQAPRLLIYLASRRHTGIPDRFSGSGSGTDFTLTISRLEPEDFAVYYCQQSGRVPWTFGQGTKVEIK
notes: also called antibody PEA2
Turning to B1, the binding result in experiment [1] and in experiment [2] was “no binding (tested: 50 nM)” in each case.
